Measurements reported in IntAct's records for PubMed 31515488.

B1: Enhancer of mRNA-decapping protein 3 (Homo sapiens), Q96F86 (parent)
chain: MATDWLGSIVSINCGDSLGVYQGRVSAVDQVSQTISLTRPFHNGVKCLVPEVTFRAGDITELKILEIPGPGDNQHFGDLHQTELGPSGAGCQVGINQNGTGKFVKKPASSSSAPQNIPKRTDVKSQDVAVSPQQQQCSKSYVDRHMESLSQSKSFRRRHNSWSSSSRHPNQATPKKSGLKNGQMKNKDDECFGDDIEEIPDTDFDFEGNLALFDKAAVFEEIDTYERRSGTRSRGIPNERPTRYRHDENILESEPIVYRRIIVPHNVSKEFCTDSGLVVPSISYELHKKLLSVAEKHGLTLERRLEMTGVCASQMALTLLGGPNRLNPKNVHQRPTVALLCGPHVKGAQGISCGRHLANHDVQVILFLPNFVKMLESITNELSLFSKTQGQQVSSLKDLPTSPVDLVINCLDCPENVFLRDQPWYKAAVAWANQNRAPVLSIDPPVHEVEQGIDAKWSLALGLPLPLGEHAGRIYLCDIGIPQQVFQEVGINYHSPFGCKFVIPLHSA
B2: Protein DDI1 homolog 1 (Homo sapiens), Q8WTU0 (parent)
chain: MLITVYCVRRDLSEVTFSLQVSPDFELRNFKVLCEAESRVPVEEIQIIHMERLLIEDHCSLGSYGLKDGDIVVLLQKDNVGPRAPGRAPNQPRVDFSGIAVPGTSSSRPQHPGQQQQRTPAAQRSQGLASGEKVAGLQGLGSPALIRSMLLSNPHDLSLLKERNPPLAEALLSGSLETFSQVLMEQQREKALREQERLRLYTADPLDREAQAKIEEEIRQQNIEENMNIAIEEAPESFGQVTMLYINCKVNGHPLKAFVDSGAQMTIMSQACAERCNIMRLVDRRWAGVAKGVGTQRIIGRVHLAQIQIEGDFLQCSFSILEDQPMDMLLGLDMLRRHQCSIDLKKNVLVIGTTGTQTYFLPEGELPLCSRMVSGQDESSDKEITHSVMDSGRKEH
partner: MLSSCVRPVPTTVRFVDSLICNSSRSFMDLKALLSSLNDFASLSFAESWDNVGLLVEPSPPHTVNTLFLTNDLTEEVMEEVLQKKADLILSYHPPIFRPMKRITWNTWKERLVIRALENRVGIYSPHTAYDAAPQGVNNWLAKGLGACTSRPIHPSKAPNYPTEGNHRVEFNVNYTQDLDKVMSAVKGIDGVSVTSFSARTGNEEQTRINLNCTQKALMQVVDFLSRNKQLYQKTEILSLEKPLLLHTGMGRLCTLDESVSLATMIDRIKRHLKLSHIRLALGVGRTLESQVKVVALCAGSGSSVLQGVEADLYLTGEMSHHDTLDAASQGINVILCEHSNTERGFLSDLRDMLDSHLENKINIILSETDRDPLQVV
B3: Mitochondrial fission 1 protein (Homo sapiens), Q9Y3D6 (parent)
chain: MEAVLNELVSVEDLLKFEKKFQSEKAAGSVSKSTQFEYAWCLVRSKYNDDIRKGIVLLEELLPKGSKEEQRDYVFYLAVGNYRLKEYEKALKYVRGLLQTEPQNNQAKELERLIDKAMKKDGLVGMAIVGGMALGVAGLAGLIGLAVSKSKS
partner: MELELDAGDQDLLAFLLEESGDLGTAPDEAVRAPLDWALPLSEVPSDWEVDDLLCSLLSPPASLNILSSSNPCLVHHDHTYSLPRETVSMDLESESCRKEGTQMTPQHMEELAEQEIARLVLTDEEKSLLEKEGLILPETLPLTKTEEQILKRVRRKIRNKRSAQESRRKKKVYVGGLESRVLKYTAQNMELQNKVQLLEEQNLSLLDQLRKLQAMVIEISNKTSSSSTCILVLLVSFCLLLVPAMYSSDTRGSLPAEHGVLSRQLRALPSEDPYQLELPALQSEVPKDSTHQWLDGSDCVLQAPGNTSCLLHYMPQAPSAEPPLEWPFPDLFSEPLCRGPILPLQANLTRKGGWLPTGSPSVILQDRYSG
B4: Cyclin-dependent kinase 4 inhibitor C (Homo sapiens), P42773 (parent)
chain: MAEPWGNELASAAARGDLEQLTSLLQNNVNVNAQNGFGRTALQVMKLGNPEIARRLLLRGANPDLKDRTGFAVIHDAARAGFLDTLQTLLEFQADVNIEDNEGNLPLHLAAKEGHLRVVEFLVKHTASNVGHRNHKGDTACDLARLYGRNEVVSLMQANGAGGATNLQ

Variants of: B1
Details: with ddx6_human DDX6, P26196
Chain of ddx6_human DDX6, P26196 (P26196 whole entry): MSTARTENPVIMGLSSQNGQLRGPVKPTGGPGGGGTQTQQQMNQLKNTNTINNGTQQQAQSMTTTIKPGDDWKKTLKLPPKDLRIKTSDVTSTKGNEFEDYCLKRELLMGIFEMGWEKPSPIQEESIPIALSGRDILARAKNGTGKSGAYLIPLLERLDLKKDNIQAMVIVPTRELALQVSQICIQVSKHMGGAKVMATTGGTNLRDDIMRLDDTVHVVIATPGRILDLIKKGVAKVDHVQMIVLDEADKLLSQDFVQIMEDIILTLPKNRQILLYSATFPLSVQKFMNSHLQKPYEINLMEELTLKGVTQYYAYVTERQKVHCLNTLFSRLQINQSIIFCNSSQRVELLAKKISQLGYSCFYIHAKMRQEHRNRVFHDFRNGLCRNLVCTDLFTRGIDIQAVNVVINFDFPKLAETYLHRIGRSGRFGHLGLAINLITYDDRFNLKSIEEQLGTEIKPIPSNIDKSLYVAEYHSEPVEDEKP

| effect of a mutation on the interaction | Variant |
| --- | --- |
| with no effect | R232G |

Variants of: B2
Details: with nif3l_human NIF3L1, Q9GZT8

| Variant | effect of a mutation on the interaction |
| --- | --- |
| R87C | with no effect |
| S63A | with no effect |

Now from value to variant:

| effect of a mutation on the interaction | Variant |
| --- | --- |
| with no effect | D323N |
| with no effect | N228T |
| with no effect | R208G |
| with no effect | G136S |

Variants of: B3
Details: with creb3_human CREB3, O43889

| effect of a mutation on the interaction | Variant |
| --- | --- |
| with no effect | V124M |

Variants of: B4
Details: with cdk6_human CDK6, Q00534
Chain of cdk6_human CDK6, Q00534 (Q00534 whole entry): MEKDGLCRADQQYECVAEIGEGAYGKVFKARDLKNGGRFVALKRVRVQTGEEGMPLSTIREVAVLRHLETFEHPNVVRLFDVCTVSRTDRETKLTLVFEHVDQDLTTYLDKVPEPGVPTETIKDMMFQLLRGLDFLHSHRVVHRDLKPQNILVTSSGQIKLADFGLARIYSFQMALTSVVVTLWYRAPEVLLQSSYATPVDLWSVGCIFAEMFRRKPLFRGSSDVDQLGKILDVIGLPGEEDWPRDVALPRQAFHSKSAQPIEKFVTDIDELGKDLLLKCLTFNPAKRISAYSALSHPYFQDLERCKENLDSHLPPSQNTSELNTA

| effect of a mutation on the interaction | Variant |
| --- | --- |
| with no effect | T69A |

Variants of: B4
Details: with cdk4_human CDK4, P11802

| effect of a mutation on the interaction | Variant |
| --- | --- |
| with no effect | T69A |

Variants of: B4
Details: with itf2_human TCF4, P15884
Chain of itf2_human TCF4, P15884 (P15884 whole entry): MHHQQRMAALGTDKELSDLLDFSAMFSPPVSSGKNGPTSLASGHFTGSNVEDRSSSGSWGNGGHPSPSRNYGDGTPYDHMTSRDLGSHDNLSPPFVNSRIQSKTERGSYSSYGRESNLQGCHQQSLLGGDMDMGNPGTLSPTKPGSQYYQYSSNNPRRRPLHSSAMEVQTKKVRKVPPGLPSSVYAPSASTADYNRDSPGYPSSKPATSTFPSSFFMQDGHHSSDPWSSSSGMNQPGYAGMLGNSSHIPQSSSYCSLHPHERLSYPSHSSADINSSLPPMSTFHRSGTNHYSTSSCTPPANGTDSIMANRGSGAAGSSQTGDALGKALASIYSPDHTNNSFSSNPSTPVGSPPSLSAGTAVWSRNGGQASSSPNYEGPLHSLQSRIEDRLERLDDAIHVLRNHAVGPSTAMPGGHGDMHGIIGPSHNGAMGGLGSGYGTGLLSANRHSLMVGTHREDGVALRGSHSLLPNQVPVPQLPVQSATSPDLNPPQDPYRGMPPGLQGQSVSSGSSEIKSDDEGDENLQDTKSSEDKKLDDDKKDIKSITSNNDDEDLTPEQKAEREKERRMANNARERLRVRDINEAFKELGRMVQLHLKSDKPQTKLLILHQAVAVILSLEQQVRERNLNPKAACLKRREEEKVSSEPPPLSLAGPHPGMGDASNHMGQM

| effect of a mutation on the interaction | Variant |
| --- | --- |
| with no effect | T69A |
